The results in this text go back to US20250186562A1 (University of California, published 2025).

Experiment [1] has as its target T1, GST-UBR2 fusion protein (GST-Ubr-box of Ubr2) (human).
T1 construct: GST fusion used as such in the FP assay
In words: fluorescence polarization, GST-Ubr-box titrated into 9 nM tracer. On the technique in general: In fluorescence polarisation assays a small probe gives low polarisation when free and higher when bound to something large.

Experiment [2] concerns the target T2, GST-UBR1 fusion protein (GST-Ubr-box of Ubr1) (human).
T2 construct: GST fusion used as such in the FP assay
Described as above.

For another experiment, the target named is T3, GST-Ubr-box of Ubr4 (UniProt Q5T4S7 1656-1729).
T3 construct: domain: Ubr-box; not shown: glutathione S-transferase (GST) tag
Described as above.

The target in another experiment is T4, GST-Ubr-box of Ubr5 (UniProt O95071 1177-1245).
T4 construct: domain: Ubr-box; not shown: glutathione S-transferase (GST) tag
T4 sequence (looked up): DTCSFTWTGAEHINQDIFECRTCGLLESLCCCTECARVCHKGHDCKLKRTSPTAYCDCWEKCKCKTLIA
Described as above.

The target of experiment [3] is T5, Purified GST (glutathione S-transferase) (UniProt P08515 1-218 = GST).
T5 construct: Control protein in the FP assay; also called GST alone
In words: fluorescence polarization, GST titrated into 9 nM tracer. From the text:
The FP assay uses a tetrapeptide with a sequence arginine-isoleucine-phenylalanine-serine (RIFS) with fluorescein attached to the C-terminus as tracer that was previously shown to bind to the Ubr-boxes of Ubr1 and Ubr2 with similar binding affinity. Assays were developed in 384-well plates, which were read on a Clariostar Reader. Signal-to-background ratio (S/B) was optimized by varying concentrations of GST-Ubr-box and tracer concentrations. GST-fusion proteins were used due to its larger size than Ubr-box alone to increase the FP effect. […] The optimized condition includes receptor concentration [GST-UBR1]=2 μM, tracer concentration [tracer]=9 nM, and the highest concentration of unlabeled peptidomimetic compound competitors at 200 μM with 3× serial dilutions.

No end group written: not given here. fluorescein = fluorescein attached to the C-terminus

T1 sequence (chain, as listed by the source limits assumed): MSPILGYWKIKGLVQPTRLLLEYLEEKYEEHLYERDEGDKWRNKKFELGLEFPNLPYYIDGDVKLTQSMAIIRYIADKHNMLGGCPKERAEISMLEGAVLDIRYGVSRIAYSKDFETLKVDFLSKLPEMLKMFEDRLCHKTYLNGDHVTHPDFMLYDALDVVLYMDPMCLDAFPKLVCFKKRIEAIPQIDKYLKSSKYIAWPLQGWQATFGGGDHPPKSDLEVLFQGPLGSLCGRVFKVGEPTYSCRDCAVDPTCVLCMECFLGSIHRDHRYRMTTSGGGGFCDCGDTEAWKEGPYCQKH
T2 sequence (chain, as listed by the source limits assumed): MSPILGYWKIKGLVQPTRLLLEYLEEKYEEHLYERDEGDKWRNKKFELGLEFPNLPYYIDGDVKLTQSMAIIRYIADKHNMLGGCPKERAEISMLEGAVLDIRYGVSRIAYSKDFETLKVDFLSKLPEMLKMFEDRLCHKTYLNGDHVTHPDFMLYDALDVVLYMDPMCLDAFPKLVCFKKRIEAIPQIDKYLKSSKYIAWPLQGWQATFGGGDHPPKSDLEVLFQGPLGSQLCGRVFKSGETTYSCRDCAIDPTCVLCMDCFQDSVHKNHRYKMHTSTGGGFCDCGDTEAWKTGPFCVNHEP
T3 sequence (Q5T4S7 1656-1729): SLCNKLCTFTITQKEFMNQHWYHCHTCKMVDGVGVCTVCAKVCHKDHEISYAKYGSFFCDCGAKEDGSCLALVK
T5 sequence (P08515 whole entry): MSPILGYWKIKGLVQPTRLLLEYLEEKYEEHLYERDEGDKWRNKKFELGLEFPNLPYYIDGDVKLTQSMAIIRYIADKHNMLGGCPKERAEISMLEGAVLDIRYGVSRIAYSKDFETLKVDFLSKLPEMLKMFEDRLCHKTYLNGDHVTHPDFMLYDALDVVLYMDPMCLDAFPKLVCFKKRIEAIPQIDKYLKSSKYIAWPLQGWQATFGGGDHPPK

B1: tetrapeptide arginine-isoleucine-phenylalanine-serine (RIFS) with fluorescein attached to the C-terminus (peptide)
peptide: RIFS-fluorescein
notes: FP tracer, used at 9 nM; also called tracer
As to B1, the binding result is recorded as “binds” in experiment [1]; “binds” in experiment [2]; “no binding” with GST-Ubr-box of Ubr4; “no binding” with GST-Ubr-box of Ubr5; “no binding” in experiment [3].
